According to FireProtDB (doi:10.1016/0022-2836(81)90253-9):

Conditions: Sus scrofa, Thermal, DSC, reversible: yes, whole UniProt chain shown
[1] = pH 6.5, sodium phosphate 5 mM, NaCl 100 mM
[2] = pH 7.1, sodium phosphate 5 mM, NaCl 100 mM

B1: Gastricsin wild type, P30879 (protein)
chain: SVIKVPLKKLKSIRQAMKEKGLLEEFLKTHKYDPAQRYRIGDISVALEPMAYLEAAYFGEISIGTPPQNFLVL
With B1 the Tm (pH 6, sodium cacodylate 5 mM) was 66 °C, the “unfolding enthalpy (calorimetric)” value (pH 6, sodium cacodylate 5 mM) was 271 kcal/mol and the “unfolding enthalpy (van 't Hoff)” value (pH 6, sodium cacodylate 5 mM) was 174 kcal/mol. The Tm [1] was 64.5 °C, the “unfolding enthalpy (calorimetric)” value [1] was 256 kcal/mol and the “unfolding enthalpy (van 't Hoff)” value [1] was 131 kcal/mol. For the same protein, the Tm (pH 6.5, sodium phosphate 5 mM) was 61 °C, the “unfolding enthalpy (calorimetric)” value (pH 6.5, sodium phosphate 5 mM) was 240 kcal/mol and the “unfolding enthalpy (van 't Hoff)” value (pH 6.5, sodium phosphate 5 mM) was 125 kcal/mol. For the same protein, the Tm [2] was 56.3 °C, the “unfolding enthalpy (calorimetric)” value [2] was 202 kcal/mol and the “unfolding enthalpy (van 't Hoff)” value [2] was 143 kcal/mol.
